T1: Human papillomavirus type 16 E5 protein peptide on HLA-A*02:01 (human)
T1 peptide: YIIFVYIPL

T2: Human papillomavirus type 16 E6 protein peptide on HLA-A*02:01 (human)
T2 peptide: TIHDIILECV

T3: Human papillomavirus type 16 E7 protein peptide on HLA-A*02:01 (human)
T3 peptide: TLGIVCPI


Legend:
Assay in all cases: cytokine release
[1] = target: T1, Human papillomavirus type 16 E5 protein …
[2] = target: T2, Human papillomavirus type 16 E6 protein …
[3] = target: T3, Human papillomavirus type 16 E7 protein …

Row | Binder | binding result [2] | further results
1 | T2 (TCR, V domains shown) Valpha: QKEVEQNSGPLSVPEGAIASLNCTYSDRGSQSFFWYRQYSGKSPELIMSIYSNGDKEDGRFTAQLNKASQYVSLLIRDSQPSDSATYLCAVNVDFNKFYFGSGTKLNVKP Vbeta: DTEVTQTPKHLVMGMTNKKSLKCEQHMGHRAMYWYKQKAKKPPELMFVYSYEKLSINESVPSRFSPECPNSSLLNLHLHALQPEDSALYLCASSQDWNNEQFFGPGTRLTVL | – | binding result [1]: recognises
2 | T3 (TCR, V domains shown) Valpha: EDQVTQSPEALRLQEGESSSLNCSYTVSGLRGLFWYRQDPGKGPEFLFTLYSAGEEKEKERLKATLTKKESFLHITAPKPEDSATYLCAVQANRGSTLGRLYFGRGTQLTVWP Vbeta: DVKVTQSSRYLVKRTGEKVFLECVQDMDHENMFWYRQDPGLGLRLIYFSYDVKMKEKGDIPEGYSVSREKKERFSLILESASTNQTSMYLCASSLWGRLAKNIQYFGAGTRLSVL | recognises | –
3 | T4 (TCR, V domains shown) Valpha: KQEVTQIPAALSVPEGENLVLNCSFTDSAIYNLQWFRQDPGKGLTSLLLIQSSQREQTSGRLNASLDKSSGRSTLYIAASQPGDSATYLCAVRETSGSRLTFGEGTQLTVNP Vbeta: DVKVTQSSRYLVKRTGEKVFLECVQDMDHENMFWYRQDPGLGLRLIYFSYDVKMKEKGDIPEGYSVSREKKERFSLILESASTNQTSMYLCASSFWGRSTDTQYFGPGTRLTVL | recognises | –
4 | T5a (TCR, V domains shown) Valpha: SQQGEEDPQALSIQEGENATMNCSYKTSINNLQWYRQNSGRGLVHLILIRSNEREKHSGRLRVTLDTSKKSSSLLITASRAADTASYFCATVSTDSWGKLQFGAGTQVVVTP Vbeta: DAGITQSPRHKVTETGTPVTLRCHQTENHRYMYWYRQDPGHGLRLIHYSYGVKDTDKGEVSDGYSVSRSKTEDFLLTLESATSSQTSVYFCAISDSNGINIQYFGAGTRLSVL | recognises | –
5 | T5b (TCR, V domains shown) Valpha: SQQGEEDPQALSIQEGENATMNCSYKTSINNLQWYRQNSGRGLVHLILIRSNEREKHSGRLRVTLDTSKKSSSLLITASRAADTASYFCATVSTDSWGKLQFGAGTQVVVTP Vbeta: DVKVTQSSRYLVKRTGEKVFLECVQDMDHENMFWYRQDPGLGLRLIYFSYDVKMKEKGDIPEGYSVSREKKERFSLILESASTNQTSMYLCASSLWGRAGKDTQYFGPGTRLTVL | recognises | –
6 | T7 (TCR, V domains shown) Valpha: QQPVQSPQAVILREGEDAVINCSSSKALYSVHWYRQKHGEAPVFLMILLKGGEQKGHEKISASFNEKKQQSSLYLTASQLSYSGTYFCGTGTDSWGKLQFGAGTQVVVTP Vbeta: DAGVIQSPRHEVTEMGQEVTLRCKPISGHDYLFWYRQTMMRGLELLIYFNNNVPIDDSGMPEDRFSAKMPNASFSTLKIQPSEPRDSAVYFCASSPGLAGGEQFFGPGTRLTVL | – | binding result [3]: recognises

Source: US20190062398A1 (published 2019)
